Three molecules from US20060094663A1 can be followed below.

Where no end group is shown, it is not given here. [ ]: non-standard residue; d: D form. I2aa = indolizidin-2-one amino acid (2-oxo-3-amino-azabicyclo[4.3.0]nonane-9-carboxylic acid), a dipeptide surrogate; dOrn = NCCC[C@@H](N)C(=O)O

For assay [1], the target named is IL-1R/IL-1RacP receptor on porcine cells and vessels (porcine (piglet)). Nature of the assay: cell-based or functional assay.
Assay [2] concerns the target IL-1R/IL-1RacP receptor (cells or tissue whose species is not stated). Nature of the assay: cell-based or functional assay.

IL-1R/IL-1RacP receptor (cells or tissue whose species is not stated), sequence (P14778 whole entry, chain 1 of 2): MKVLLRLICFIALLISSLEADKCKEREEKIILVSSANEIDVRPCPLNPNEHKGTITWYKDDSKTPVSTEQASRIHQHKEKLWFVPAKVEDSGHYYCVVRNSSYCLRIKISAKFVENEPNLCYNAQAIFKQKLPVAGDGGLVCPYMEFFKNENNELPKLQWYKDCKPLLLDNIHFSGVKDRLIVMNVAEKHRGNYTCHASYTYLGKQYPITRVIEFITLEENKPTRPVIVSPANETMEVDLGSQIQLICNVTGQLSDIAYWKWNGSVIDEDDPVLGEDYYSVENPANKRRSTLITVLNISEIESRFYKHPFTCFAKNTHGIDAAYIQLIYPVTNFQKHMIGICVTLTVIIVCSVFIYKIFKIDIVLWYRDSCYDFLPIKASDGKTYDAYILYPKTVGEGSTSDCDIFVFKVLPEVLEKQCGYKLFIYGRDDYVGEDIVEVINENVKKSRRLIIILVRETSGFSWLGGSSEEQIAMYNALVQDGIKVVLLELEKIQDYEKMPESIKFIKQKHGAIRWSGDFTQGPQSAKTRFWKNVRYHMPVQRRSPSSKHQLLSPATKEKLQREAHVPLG
IL-1R/IL-1RacP receptor (cells or tissue whose species is not stated), sequence (Q9NPH3 whole entry, chain 2 of 2, further chain): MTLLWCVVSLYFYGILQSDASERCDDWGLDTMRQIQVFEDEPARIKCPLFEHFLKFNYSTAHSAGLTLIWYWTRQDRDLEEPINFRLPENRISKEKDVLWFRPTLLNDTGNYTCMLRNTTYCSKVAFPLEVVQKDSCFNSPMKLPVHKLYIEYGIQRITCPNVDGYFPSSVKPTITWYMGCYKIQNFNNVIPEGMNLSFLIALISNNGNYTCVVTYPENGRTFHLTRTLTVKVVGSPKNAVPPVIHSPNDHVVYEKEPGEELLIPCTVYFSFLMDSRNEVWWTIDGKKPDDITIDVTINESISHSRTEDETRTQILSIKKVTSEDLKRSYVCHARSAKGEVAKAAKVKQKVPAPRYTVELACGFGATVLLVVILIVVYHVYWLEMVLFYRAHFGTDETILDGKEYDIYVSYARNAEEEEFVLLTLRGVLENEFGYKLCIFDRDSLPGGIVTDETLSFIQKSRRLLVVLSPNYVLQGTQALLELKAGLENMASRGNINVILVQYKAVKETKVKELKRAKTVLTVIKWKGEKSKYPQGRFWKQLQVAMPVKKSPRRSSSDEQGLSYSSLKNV

In assay [1], [dR][dY][I2aa][dE][dL][dA]-NH2 [API-101.110] showed an IC50, IL-1-induced PGE2 synthesis, endothelial cells of 0.2 pM and a fold potency against API-101.107, IL-1-induced PGE2 synthesis, endothelial cells of 10 fold. Also, the activity (FIG. 26; assay not given) in assay [2] is 10 pM.
In the case of [dOrn][dY]X[dE][dL][dA] (not fully specified (residue 3); printed as (D-orn)y[R-I2aa]ela) [TTI-101.125], in assay [2], the IC50 (FIG. 26; assay not given) came to 9e-05 µM and the efficacy (FIG. 26; assay not given) is 100%.
The matching figures for [dR][dY]X[dE][dL] (not fully specified (residue 3); printed as ry[R-I2aa]el) [TTI-101.124]: 2.4 µM and 100%.
